{"source": "paper PMC6356446", "about": "“Involvement of N-glycan in Multiple Receptor Tyrosine Kinases Targeted by Ling-Zhi-8 for Suppressing HCC413 Tumor Progression” (Cancers, 2018)", "test_in_all_cases": "cell-based or functional assay", "key": {"c-Met": {"molecular_target": "c-Met (human (endogenous in HCC413), UniProt P08581 25-1390, N-glycans (sites not given))", "sequence (P08581 25-1390)": "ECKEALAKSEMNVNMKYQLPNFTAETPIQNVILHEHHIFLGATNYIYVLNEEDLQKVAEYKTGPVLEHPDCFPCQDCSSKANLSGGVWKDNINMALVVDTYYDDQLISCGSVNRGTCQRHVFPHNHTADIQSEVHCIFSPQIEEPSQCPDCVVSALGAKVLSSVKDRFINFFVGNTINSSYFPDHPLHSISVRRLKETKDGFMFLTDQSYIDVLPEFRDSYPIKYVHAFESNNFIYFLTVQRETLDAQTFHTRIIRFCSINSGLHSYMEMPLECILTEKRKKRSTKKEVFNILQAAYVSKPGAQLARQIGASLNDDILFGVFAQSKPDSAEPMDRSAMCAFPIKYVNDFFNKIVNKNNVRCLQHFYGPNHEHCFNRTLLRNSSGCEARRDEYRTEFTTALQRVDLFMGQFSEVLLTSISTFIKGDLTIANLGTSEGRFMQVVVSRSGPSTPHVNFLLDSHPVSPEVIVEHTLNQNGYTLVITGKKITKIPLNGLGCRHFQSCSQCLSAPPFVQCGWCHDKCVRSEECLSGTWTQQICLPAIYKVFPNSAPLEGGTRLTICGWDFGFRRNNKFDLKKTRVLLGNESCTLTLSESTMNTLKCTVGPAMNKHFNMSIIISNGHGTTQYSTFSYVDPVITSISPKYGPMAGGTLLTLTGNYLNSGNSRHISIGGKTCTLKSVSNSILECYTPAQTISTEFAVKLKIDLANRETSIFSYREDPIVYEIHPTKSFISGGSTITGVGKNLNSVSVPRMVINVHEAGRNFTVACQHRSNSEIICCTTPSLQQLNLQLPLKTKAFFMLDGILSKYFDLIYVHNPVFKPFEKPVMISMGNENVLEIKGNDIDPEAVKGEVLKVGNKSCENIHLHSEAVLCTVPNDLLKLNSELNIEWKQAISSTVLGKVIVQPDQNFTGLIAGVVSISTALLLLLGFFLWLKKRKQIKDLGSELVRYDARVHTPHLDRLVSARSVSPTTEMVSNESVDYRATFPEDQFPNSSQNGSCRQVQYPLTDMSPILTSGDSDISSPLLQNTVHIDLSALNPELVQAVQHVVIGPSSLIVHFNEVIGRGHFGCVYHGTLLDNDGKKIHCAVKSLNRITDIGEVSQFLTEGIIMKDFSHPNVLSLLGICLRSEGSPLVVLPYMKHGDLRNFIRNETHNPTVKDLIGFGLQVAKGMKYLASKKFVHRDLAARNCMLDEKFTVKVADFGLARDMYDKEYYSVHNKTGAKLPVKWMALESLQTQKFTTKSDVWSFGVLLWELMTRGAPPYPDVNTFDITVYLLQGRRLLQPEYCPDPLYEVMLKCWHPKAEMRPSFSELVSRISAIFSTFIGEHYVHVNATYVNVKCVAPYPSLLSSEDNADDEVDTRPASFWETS"}, "HER3": {"molecular_target": "HER3 (human (endogenous in HCC413), UniProt P21860 20-1342, N-glycans (sites not given))", "sequence (P21860 20-1342)": "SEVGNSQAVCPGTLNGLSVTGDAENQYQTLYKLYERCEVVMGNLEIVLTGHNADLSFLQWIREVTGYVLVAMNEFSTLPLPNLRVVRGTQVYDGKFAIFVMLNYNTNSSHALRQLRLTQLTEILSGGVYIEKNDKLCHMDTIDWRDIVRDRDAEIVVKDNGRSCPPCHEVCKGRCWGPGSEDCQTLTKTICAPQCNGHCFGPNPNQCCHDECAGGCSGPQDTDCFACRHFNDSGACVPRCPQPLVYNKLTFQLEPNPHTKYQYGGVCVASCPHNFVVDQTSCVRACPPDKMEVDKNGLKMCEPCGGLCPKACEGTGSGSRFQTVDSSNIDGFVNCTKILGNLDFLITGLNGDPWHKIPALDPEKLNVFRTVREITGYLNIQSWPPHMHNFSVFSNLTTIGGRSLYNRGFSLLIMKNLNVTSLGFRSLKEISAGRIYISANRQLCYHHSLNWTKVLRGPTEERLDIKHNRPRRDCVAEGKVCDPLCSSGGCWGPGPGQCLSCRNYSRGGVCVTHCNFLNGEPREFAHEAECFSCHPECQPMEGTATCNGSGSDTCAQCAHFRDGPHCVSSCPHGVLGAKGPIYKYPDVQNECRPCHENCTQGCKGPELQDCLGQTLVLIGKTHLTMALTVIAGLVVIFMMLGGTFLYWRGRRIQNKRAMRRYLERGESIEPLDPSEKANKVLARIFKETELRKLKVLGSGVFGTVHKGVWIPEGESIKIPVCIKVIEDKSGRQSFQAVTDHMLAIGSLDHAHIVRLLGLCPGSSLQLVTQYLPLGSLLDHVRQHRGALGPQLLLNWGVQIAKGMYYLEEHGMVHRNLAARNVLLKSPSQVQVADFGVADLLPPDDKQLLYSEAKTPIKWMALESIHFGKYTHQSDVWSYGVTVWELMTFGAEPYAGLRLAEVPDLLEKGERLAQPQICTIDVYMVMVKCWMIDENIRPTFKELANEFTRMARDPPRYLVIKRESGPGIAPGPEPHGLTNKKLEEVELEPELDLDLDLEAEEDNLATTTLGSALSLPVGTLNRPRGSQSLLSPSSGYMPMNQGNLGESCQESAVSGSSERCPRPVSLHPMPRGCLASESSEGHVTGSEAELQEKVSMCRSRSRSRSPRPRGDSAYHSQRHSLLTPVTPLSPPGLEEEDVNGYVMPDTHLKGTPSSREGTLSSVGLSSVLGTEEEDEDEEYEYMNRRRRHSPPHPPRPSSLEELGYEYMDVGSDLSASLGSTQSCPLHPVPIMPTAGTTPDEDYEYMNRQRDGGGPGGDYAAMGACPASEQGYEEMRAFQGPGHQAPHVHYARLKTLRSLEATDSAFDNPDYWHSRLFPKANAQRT"}, "EGFR": {"molecular_target": "EGFR (human (endogenous in HCC413), UniProt P00533 25-1210, N-glycans (sites not given))"}}, "data": [{"binder": "Ling-Zhi-8 (natural protein, Ganoderma lucidium, UniProt P14945 1-111, looked up) MSDTALIFRLAWDVKKLSFDYTPNWGRGNPNNFIDTVTFPKVLTDKAYTYRVAVSGRNLGVKPSYAVESDGSQKVNFLEYNSGYGIADTNTIQVFVVDPDTNNDFIIAQWN", "values": [{"measurement": "decrease in phosphorylated ERK in HCC413, LZ-8 0.2 and 0.8 uM, 24 h; Western blot", "setting": "c-Met", "value": "85 to 90", "unit": "%"}, {"measurement": "phosphorylated JNK in HCC413, LZ-8 0.2 and 0.8 uM, 24 h; Western blot", "setting": "c-Met", "value": 50, "unit": "%"}, {"measurement": "phosphorylated c-jun in HCC413, LZ-8 0.2 and 0.8 uM, 24 h; Western blot", "setting": "c-Met", "value": 75, "unit": "%"}, {"measurement": "decrease in phosphorylated ERK in HCC413, LZ-8 0.2 and 0.8 uM, 24 h; Western blot", "setting": "HER3", "value": "85 to 90", "unit": "%"}, {"measurement": "phosphorylated JNK in HCC413, LZ-8 0.2 and 0.8 uM, 24 h; Western blot", "setting": "HER3", "value": 50, "unit": "%"}, {"measurement": "phosphorylated c-jun in HCC413, LZ-8 0.2 and 0.8 uM, 24 h; Western blot", "setting": "HER3", "value": 75, "unit": "%"}, {"measurement": "decrease in phosphorylated ERK in HCC413, LZ-8 0.2 and 0.8 uM, 24 h; Western blot", "setting": "EGFR", "value": "85 to 90", "unit": "%"}, {"measurement": "phosphorylated JNK in HCC413, LZ-8 0.2 and 0.8 uM, 24 h; Western blot", "setting": "EGFR", "value": 50, "unit": "%"}, {"measurement": "phosphorylated c-jun in HCC413, LZ-8 0.2 and 0.8 uM, 24 h; Western blot", "setting": "EGFR", "value": 75, "unit": "%"}]}]}
